Data as given in publication PMC11250742, “Preclinical evaluation of CXCR4 peptides for targeted radionuclide therapy in glioblastoma” (EJNMMI Radiopharmacy and Chemistry, 2024).
Where a SMILES comes first, the peptide text is derived from it. Bridges are numbered along the chain shown (N, C = ends). [ ]: non-standard residue; d: D form. The star is where a group is joined. DOTA = O=C(O)CN1CCN(CC(=O)O)CCN(CC(=O)*)CCN(CC(=O)O)CC1; 2Nal = N[C@@H](Cc1ccc2ccccc2c1)C(=O)O; Cit = NC(=O)NCCC[C@H](N)C(=O)O

Legend:
CXCR4 = biological target: T1, CXCR4 (Homo sapiens, UniProt P61073); test: In vitro autoradiography saturation binding on U87-CXCR4 + tumour slices; settings: sections of subcutaneous U87-CXCR4 + tumours; 0.1–1000 nM; NSB with 100 µM AMD11070; N = 3
T1 construct: expressed in transfected cells; host or cells: U87-MG (U87-CXCR4+), kept under blasticidin selection
T1 sequence (P61073 whole entry): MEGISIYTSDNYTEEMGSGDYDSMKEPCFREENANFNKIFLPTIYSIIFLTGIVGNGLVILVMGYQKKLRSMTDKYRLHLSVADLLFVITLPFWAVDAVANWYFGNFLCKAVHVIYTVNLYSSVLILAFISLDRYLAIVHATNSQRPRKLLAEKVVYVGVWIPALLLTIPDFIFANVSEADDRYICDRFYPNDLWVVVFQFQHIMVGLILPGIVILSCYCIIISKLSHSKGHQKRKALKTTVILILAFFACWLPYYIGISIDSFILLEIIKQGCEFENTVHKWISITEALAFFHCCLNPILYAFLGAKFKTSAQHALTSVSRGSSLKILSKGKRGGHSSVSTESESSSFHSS

in vivo = test: in vivo; design: species or system BALB/c nude mice; settings: mouse; for tissue uptake dose at 4 h / SUV at 4 h: BALB/c nude, iv, total radioactivity; for tissue uptake dose at 4 h: %IA
Experimental: For the generation of the subcutaneous GBM xenograft model, BALB/c nude mice (between 8 and 12 weeks old) were anesthetised with 2.5% isoflurane in O2 at a flow rate of 0.2 L/min and subcutaneously injected on the right shoulder with 3 × 10^6 U87-CXCR4 + cells resuspended in a 1:1 mixture of PBS and Cultrex BME (R&D Systems, Bio-Techne, Minnesota, US). Tumours were left to grow for ten days before the start of the experiment. Tumour volumes were calculated as length × width × height. Three days before the experiment, the mean tumour volumes of all mice were 255 ± 119 mm^3.
All animals were anesthetised with 2.5% isoflurane in O2 at a flow rate of 1 L/min and intravenously (IV) injected with 1.5 MBq of [^177Lu]Lu-POL3026 via a tail vein (radiolabelled with a Am of 53.1 ± 0.55 MBq/nmol). The mice were sacrificed by an overdose of pentobarbital (200 µL of 60 mg/mL) at 1-, 4-, 24- and 168 h post-injection (p.i.) (n = 3–4 per time point), followed by cardiac puncture. Organs of interest were collected in tarred tubes and weighed. The activity in the different organs was measured in the automated gamma counter described above. For the calculation of the total activity in the blood, bone, and muscle, the masses were assumed to be 7, 12 and 40% of the total body mass, respectively. Data is shown as standardised uptake value (SUV), calculated using the following equation:
SUV = [Activity in organ (cpm) / Organ weight (g)] / [(Injected activity (cpm) / Total body weight (g)].
A separate study was performed to evaluate the specificity of the uptake of [^177Lu]Lu-POL3026 in U87-CXCR4 + subcutaneous tumours and the rest of the organs. This was done by creating two groups (n = 4 / group), one group pre-injected intraperitoneally (IP) with 5 mg/kg of AMD11070, 30 min before the IV injection of [^177Lu]Lu-POL3026, while the other group was pre-injected with the DMSO vehicle. Mice from both groups were sacrificed 4 h post-injection and organs were collected as previously described.

U87-CXCR4 + cells = test: MTS cell viability assay; type: cell-based; settings: 2 h
Experimental: Cell viability assays were performed using increasing activity concentrations of the radiolabelled peptides (1 to 20 MBq/mL), incubated with U87-CXC4 + cells for four hours at 37 °C, 5% CO2. After the incubation period, cells were washed twice with PBS and replenished with complete media. After five and seven days of treatment, the cell media was removed and MTS (3-(4,5-dimethylthiazol-2-yl)-5-(3-carboxymethoxyphenyl)-2-(4-sulfophenyl)-2 H-tetrazolium) reagent added, prepared according to manufacturer’s instructions (CellTiter 96® AQueous One Solution Cell Proliferation Assay, Promega, Wisconsin, United States). To determine the effect of the radiation originating from unbound radiolabelled peptides, cells were treated with equivalent activity concentrations of [^177Lu]Lu-DTPA. Triton X-100 (0.1%) was used as a positive control. Vehicle includes the NaOAc radiolabeling buffer at the concentration used for the 20 MBq/mL peptide solutions. The cells were incubated for 0.5–1 h with the MTS reagent at 37 °C, 5% CO2. Absorbance was measured at 490 nm using a BioTek Synergy H1 plate reader (Agilent Technologies, Mechelen, Belgium). Cell viability was normalised to the vehicle and calculated as percentage of cell viability.

## N=C(N)NCCC[C@@H]1NC(=O)[C@@H]2CSSC[C@H](NC(=O)[C@H](Cc3ccc4ccccc4c3)NC(=O)[C@H](CCCNC(=N)N)NC(=O)[C@H](CCCNC(=N)N)NC(=O)[C@H]3CCCN3C(=O)CNC1=O)C(=O)N[C@@H](Cc1ccc(O)cc1)C(=O)N[C@@H](CCC(N)=O)C(=O)N[C@@H](CCCCNC(=O)CN1CCN(CC(=O)O)CCN(CC(=O)O)CCN(CC(=O)O)CC1)C(=O)N1CCC[C@@H]1C(=O)N1CCC[C@H]1C(=O)N[C@@H](Cc1ccc(O)cc1)C(=O)N[C@@H](CCCNC(=N)N)C(=O)N[C@@H](CCCNC(N)=O)C(=O)N2 [[^177Lu]Lu-DOTA-POL3026, metal not drawn] (cyclo(RR[2Nal]CYQK(DOTA)[dP]PYR[Cit]CRG[dP]); disulfide 4-13)
CXCR4
  Kd: 52 nM
In vivo; 5 mg/kg, Blood
  tissue uptake dose at 4 h: 0.33 %ID
  SUV at 4 h: 0.05 SUV
In vivo; 5 mg/kg, Blood on tissue paper
  tissue uptake dose at 4 h: 0.97 %ID
In vivo; 5 mg/kg, Bone
  tissue uptake dose at 4 h: 5.16 %ID
  SUV at 4 h: 0.43 SUV
In vivo; 5 mg/kg, Brain
  tissue uptake dose at 4 h: 0.01 %ID
In vivo; 5 mg/kg, Carcass
  tissue uptake dose at 4 h: 9.91 %ID
In vivo; 5 mg/kg, Heart
  tissue uptake dose at 4 h: 0.03 %ID
  SUV at 4 h: 0.06 SUV
In vivo; 5 mg/kg, Intestines
  tissue uptake dose at 4 h: 1.17 %ID
In vivo; 5 mg/kg, Kidneys
  tissue uptake dose at 4 h: 5.44 %ID
  SUV at 4 h: 3.74 SUV
In vivo; 5 mg/kg, Liver
  tissue uptake dose at 4 h: 33.8 %ID
  SUV at 4 h: 5.76 SUV
In vivo; 5 mg/kg, Lungs
  tissue uptake dose at 4 h: 0.35 %ID
  SUV at 4 h: 0.57 SUV
In vivo; 5 mg/kg, Muscle
  tissue uptake dose at 4 h: 1.02 %ID
  SUV at 4 h: 0.03 SUV
In vivo; 5 mg/kg, Pancreas
  tissue uptake dose at 4 h: 0.02 %ID
  SUV at 4 h: 0.03 SUV
In vivo; 5 mg/kg, Spleen
  tissue uptake dose at 4 h: 0.51 %ID
  SUV at 4 h: 1.41 SUV
In vivo; 5 mg/kg, Stomach
  tissue uptake dose at 4 h: 0.06 %ID
In vivo; 5 mg/kg, Tail
  tissue uptake dose at 4 h: 3.44 %ID
In vivo; 5 mg/kg, Tumour
  tissue uptake dose at 4 h: 1.68 %ID
  SUV at 4 h: 1.59 SUV
In vivo; 1.5 MBq, Blood
  tissue uptake dose at 4 h: 2.91 %ID
  SUV at 4 h: 0.42 SUV
In vivo; 1.5 MBq, Blood on tissue paper
  tissue uptake dose at 4 h: 1.34 %ID
In vivo; 1.5 MBq, Bone
  tissue uptake dose at 4 h: 6.85 %ID
  SUV at 4 h: 0.57 SUV
In vivo; 1.5 MBq, Brain
  tissue uptake dose at 4 h: 0.02 %ID
  SUV at 4 h: 0.01 SUV
In vivo; 1.5 MBq, Carcass
  tissue uptake dose at 4 h: 20.3 %ID
In vivo; 1.5 MBq, Heart
  tissue uptake dose at 4 h: 0.16 %ID
  SUV at 4 h: 0.37 SUV
In vivo; 1.5 MBq, Intestines
  tissue uptake dose at 4 h: 2.43 %ID
In vivo; 1.5 MBq, Kidneys
  tissue uptake dose at 4 h: 5.12 %ID
  SUV at 4 h: 3.84 SUV
In vivo; 1.5 MBq, Liver
  tissue uptake dose at 4 h: 33.5 %ID
  SUV at 4 h: 6.18 SUV
In vivo; 1.5 MBq, Lungs
  tissue uptake dose at 4 h: 1.23 %ID
  SUV at 4 h: 2.29 SUV
In vivo; 1.5 MBq, Muscle
  tissue uptake dose at 4 h: 3.35 %ID
  SUV at 4 h: 0.08 SUV
In vivo; 1.5 MBq, Pancreas
  tissue uptake dose at 4 h: 0.12 %ID
  SUV at 4 h: 0.15 SUV
In vivo; 1.5 MBq, Spleen
  tissue uptake dose at 4 h: 1.74 %ID
  SUV at 4 h: 4.83 SUV
In vivo; 1.5 MBq, Stomach
  tissue uptake dose at 4 h: 0.18 %ID
In vivo; 1.5 MBq, Tail
  tissue uptake dose at 4 h: 2.77 %ID
In vivo; 1.5 MBq, Tumour
  tissue uptake dose at 4 h: 3.35 %ID
  SUV at 4 h: 2.58 SUV
In vivo; ip, 5 mg/kg
  SUV, Brain: 0.00
U87-CXCR4 + cells
  cell viability: 52.3 ± 9.9%
